The values below come from patent publication US20100167314A1 (JAPAN SCIENCE AND TECHNOLOGY AGENCY, published 2010).

B1: mouse IRBIT (IP3 receptor-binding protein; IP3R-binding protein released with inositol 1,4,5-trisphosphate) (other)
chain: MSMPDAMPLPGVGEELKQAKEIEDAEKYSFMATVTKAPKKQIQFADDMQEFTKFPTKTGRRSLSRSISQSSTDSYSSAASYTDSSDDEVSPREKQQTNSKGSSNFCVKNIKQAEFGRREIEIAEQDMSALISLRKRAQGEKPLAGAKIVGCTHITAQTAVLIETLCALGAQCRWSACNIYSTQNEVAAALAEAGVAVFAWKGESEDDFWWCIDRCVNMDGWQANMILDDGGDLTHWVYKKYPNVFKKIRGIVEESVTGVHRLYQLSKAGKLCVPAMNVNDSVTKQKFDNLYCCRESILDGLKRTTDVMFGGKQVVVCGYGEVGKGCCAALKALGAIVYITEIDPICALQACMDGFRVVKLNEVIRQVDVVITCTGNKNVVTREHLDRMKNSCIVCNMGHSNTEIDVTSLRTPELTWERVRSQVDHVIWPDGKRVVLLAEGRLLNLSCSTVPTFVLSITATTQALALIELYNAPEGRYKQDVYLLPKKMDEYVASLHLPSFDAHLTELTDDQAKYLGLNKNGPFKPNYYRY
notes: also called Mouse-derived IRBIT

In test [1] the target is T1, myc-tagged CPSF160 subunit of mouse CPSF (mouse, UniProt Q9EPU4 1-1441, limits assumed).
T1 construct: Co-expressed with IRBIT in COS cells; not shown: myc tag
T1 sequence (looked up): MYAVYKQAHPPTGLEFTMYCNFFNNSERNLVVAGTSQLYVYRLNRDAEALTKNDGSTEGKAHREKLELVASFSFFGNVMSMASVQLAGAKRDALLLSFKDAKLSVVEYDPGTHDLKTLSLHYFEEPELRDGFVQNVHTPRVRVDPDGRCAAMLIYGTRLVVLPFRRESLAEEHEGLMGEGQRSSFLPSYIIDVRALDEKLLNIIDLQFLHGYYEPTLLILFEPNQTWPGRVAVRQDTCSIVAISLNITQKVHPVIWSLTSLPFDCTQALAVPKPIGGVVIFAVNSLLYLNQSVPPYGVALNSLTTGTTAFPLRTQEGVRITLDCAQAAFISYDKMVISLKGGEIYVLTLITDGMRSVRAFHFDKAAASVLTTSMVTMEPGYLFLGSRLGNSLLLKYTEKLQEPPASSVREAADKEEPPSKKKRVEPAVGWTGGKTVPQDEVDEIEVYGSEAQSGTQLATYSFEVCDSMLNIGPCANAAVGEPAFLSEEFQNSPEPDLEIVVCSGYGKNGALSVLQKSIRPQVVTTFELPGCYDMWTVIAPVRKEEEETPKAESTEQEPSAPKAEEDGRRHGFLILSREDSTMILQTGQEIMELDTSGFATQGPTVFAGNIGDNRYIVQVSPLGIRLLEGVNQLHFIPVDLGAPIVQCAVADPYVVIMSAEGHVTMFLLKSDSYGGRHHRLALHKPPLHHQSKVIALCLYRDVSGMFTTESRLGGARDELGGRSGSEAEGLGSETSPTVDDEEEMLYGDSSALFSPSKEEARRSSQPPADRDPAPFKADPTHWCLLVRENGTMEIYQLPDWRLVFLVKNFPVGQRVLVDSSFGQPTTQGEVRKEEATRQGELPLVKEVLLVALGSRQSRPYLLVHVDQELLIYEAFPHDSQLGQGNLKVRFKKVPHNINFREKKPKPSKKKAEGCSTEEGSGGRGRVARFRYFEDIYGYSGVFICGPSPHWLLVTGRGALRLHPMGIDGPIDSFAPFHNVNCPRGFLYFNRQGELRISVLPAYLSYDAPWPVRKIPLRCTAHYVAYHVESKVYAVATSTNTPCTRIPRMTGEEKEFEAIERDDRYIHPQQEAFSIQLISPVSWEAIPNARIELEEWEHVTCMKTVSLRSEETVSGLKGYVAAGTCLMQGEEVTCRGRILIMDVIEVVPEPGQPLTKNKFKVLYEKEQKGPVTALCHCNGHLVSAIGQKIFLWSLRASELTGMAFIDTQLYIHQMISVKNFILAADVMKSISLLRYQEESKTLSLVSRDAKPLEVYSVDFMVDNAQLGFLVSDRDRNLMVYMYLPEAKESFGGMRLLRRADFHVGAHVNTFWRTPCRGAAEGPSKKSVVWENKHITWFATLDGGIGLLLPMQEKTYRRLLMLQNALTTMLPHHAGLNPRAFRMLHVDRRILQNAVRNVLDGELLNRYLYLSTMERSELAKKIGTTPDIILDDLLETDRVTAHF
In words: co-expression in COS cells, co-immunoprecipitation, detection with anti-IRBIT and anti-myc antibodies. Here is the method:
CPSF is a group of conjugated proteins consisting of 4 subunits: CPSF160, CPSF100, CPSF73, and CPSF30. First, to reveal to which one of the 4 subunits IRBIT binds, myc-tagged cDNAs prepared by tagging each subunit with myc were expressed together with IRBIT in various combinations by COS cells or the like and then the way in which coprecipitation occurs upon immunoprecipitation of IRBIT or CPSF was examined.
DNA was prepared by fusing DNA encoding an myc tag to cDNA encoding the full-length of or each subunit of CPSF. The thus prepared DNA was inserted into a vector for mammals. Meanwhile, cDNA encoding IRBIT was also inserted into the same vector. COS cells were transformed with the thus prepared vector and then the above DNA was co-expressed.
Cells were separated by centrifugation and then lysed. Cytoplasmic fractions were collected and then the binding of IRBIT to CPSF was detected using an anti-IRBIT antibody (JP2004-129612 A) and an anti-myc antibody.

For test [2], the target named is B1. In words: immunoprecipitation from mouse cerebellum with anti-IRBIT antibody. The protocol: (1) Mouse IRBIT and Myc-PIPKIIα, β, or γ were over-expressed in COS-7, followed by immunoprecipitation. Specifically, cells were solubilized with a lysis buffer (10 mM Hepes, 100 mM NaCl, 2 mM EDTA, 1% P-40, pH 7.4) and then centrifuged (20000×g, 30 minutes) to collect supernatants. Subsequently, an anti-Myc antibody or an anti-IRBIT antibody was added and then reaction was performed for 1 hour. Furthermore, protein G Sepharose® was added before one hour reaction, and the immune complex was washed with a lysis buffer and then eluted with a SDS-PAGE sample buffer. Subsequently, Western blotting was performed using an anti-Myc antibody or an anti-IRBIT antibody. As a result, IRBIT was coprecipitated with Myc-PIPKIIα, β, and γ (FIG. 4). (2) Immunoprecipitation was performed using an anti-IRBIT antibody and the mouse cerebellum, so that PIPKIIα was coprecipitated (FIG. 5). The in vivo binding of IRBIT with PIPKII was confirmed based on the results. (3) Mouse IRBIT and Myc-PIPKIIγ were overexpressed in COS-7 and then immunostaining was performed. Specifically, after fixation with 4% paraformaldehyde, transmembrane treatment with 0.1% Triton X-100 and blocking treatment with 2% goat serum were performed, a mouse anti-Myc antibody and a rabbit anti-IRBIT antibody were added, and then reaction was performed at room temperature for 1 hour. […]

On to B1, for which the binding result in test [1] is listed as “binds”.

B2: mouse cerebellum PIPKIIα (enzyme, UniProt O70172 2-405, looked up)
chain: ATPGNLGSSVLASKTKTKKKHFVAQKVKLFRASDPLLSVLMWGVNHSINELSHVQIPVMLMPDDFKAYSKIKVDNHLFNKENMPSHFKFKEYCPMVFRNLRERFGIDDQDFQNSLTRSAPLPNDSQARSGARFHTSYDKRYVIKTITSEDVAEMHNILKKYHQYIVECHGVTLLPQFLGMYRLNVDGVEIYVIVTRNVFSHRLSVYRKYDLKGSTVAREASDKEKAKELPTLKDNDFINEGQKIYIDDNNKKIFLEKLKKDVEFLAQLKLMDYSLLVGIHDVERAEQEEVECEENDGEEEGESDSTHPIGTPPDSPGNTLNSSPPLAPGEFDPNIDVYAIKCHENAPRKEVYFMAIIDILTHYDAKKKAAHAAKTVKHGAGAEISTVNPEQYSKRFLDFIGHIL
notes: Endogenous protein coprecipitated with an anti-IRBIT antibody
As for B2, the binding result in test [2] is given as “binds”.
